According to paper PMC5832994 (ACS Central Science, 2018):
Where no end group is shown, it is not given here. Side-chain parts run from the residue outwards. The star is where a group is joined. PEG4 (disulfide) = PEG4 chain joined to the cysteine by a disulfide bond, carrying benzylguanine; benzylguanine = O6-benzylguanine; Octanoyl = CCCCCCCC(=O)*

What was measured:
SNAP_GLP-1R = SNAP_GLP-1R (UniProt P43220)
MIN6 cells [1] = assay: Necrosis assay (propidium iodide/calcein); assay type: cell-based; settings: 10 mM BME, 60 min incubation
Protocol: For quantification of necrosis, MIN6 cells were labeled with 5 μM calcein-AM and 5 μM propidium iodide for 30 min. Cells were imaged in HEPES-bicarbonate buffer using the Crest X-Light spinning disk system, and excitation was performed at λ = 458–482 nm and λ = 543–558 nm for calcein and propidium iodide, respectively. Emitted signals were detected at λ = 500–550 nm and λ = 602–662 nm for calcein and propidium iodide, respectively. Total area was quantified using the threshold plugin for Fiji and expressed as the ratio propidium iodide/calcein, as described.[70]

MIN6 cells [2] = assay: Apoptosis assay (cleaved caspase 3 immunostaining); assay type: cell-based; settings: 10 mM BME, 60 min incubation, n = 3 experiments
Protocol: For quantification of apoptosis, MIN6 cells were incubated with 10 mM BME for the indicated times and fixed in 4% paraformaldehyde. Immunostaining was performed using an antibody against Cleaved Caspase 3 (CC3; 1:400; #9661, Cell Signaling Technology), before secondary goat antirabbit Alexa Fluor 633 (1:1000) and Hoechst 33342 staining. Cells were imaged using a Zeiss LSM 880 confocal microscope, with excitation delivered at λ = 405 nm and λ = 633 nm. Emitted signals were collected at λ = 410–550 nm and λ = 641–695 nm for Hoechst 33342 and Alexa Fluor 633, respectively. Total area was quantified using the threshold plugin for Fiji, and results were expressed as the ratio CC3/Hoechst, as described.[69]

human GHS-R1a [3] = target: T1, human GHS-R1a (Homo sapiens, UniProt Q92847); assay: Inositol phosphate (IP-1) accumulation assay, IP-One HTRF; assay type: cell-based; settings: HEK293T-GHS-R1a cells; mean ± SEM, n = 2 assays in triplicate
T1 construct: expressed in transfected cells; host or cells: HEK293T cells
T1 sequence (Q92847 whole entry): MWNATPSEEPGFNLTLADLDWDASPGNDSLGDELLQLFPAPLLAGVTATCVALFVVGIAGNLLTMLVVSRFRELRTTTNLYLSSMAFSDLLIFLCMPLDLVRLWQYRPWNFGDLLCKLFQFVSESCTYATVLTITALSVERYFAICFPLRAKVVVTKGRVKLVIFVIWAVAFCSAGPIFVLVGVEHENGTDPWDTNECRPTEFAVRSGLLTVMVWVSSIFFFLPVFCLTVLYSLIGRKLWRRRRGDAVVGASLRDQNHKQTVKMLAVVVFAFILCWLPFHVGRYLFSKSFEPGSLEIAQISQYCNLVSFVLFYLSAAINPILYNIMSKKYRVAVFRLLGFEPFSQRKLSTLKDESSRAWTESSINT

human GHS-R1a [4] = target: T2, human GHS-R1a (human, UniProt Q92847 1-366); assay: AlphaScreen or HTRF; Tag-lite HTRF competition (Cisbio) on HEK293T-GHS-R1a cells; Ki calculated from binding curves; the labelled tracer is not named; as in ref. 72; n = 2 assays in triplicate; settings: one partner purified
T2 sequence (Q92847 whole entry): as above

human GHS-R1a [5] = target: T2, human GHS-R1a; assay: cell-based or functional assay

Sequence of SNAP_GLP-1R (P43220 whole entry): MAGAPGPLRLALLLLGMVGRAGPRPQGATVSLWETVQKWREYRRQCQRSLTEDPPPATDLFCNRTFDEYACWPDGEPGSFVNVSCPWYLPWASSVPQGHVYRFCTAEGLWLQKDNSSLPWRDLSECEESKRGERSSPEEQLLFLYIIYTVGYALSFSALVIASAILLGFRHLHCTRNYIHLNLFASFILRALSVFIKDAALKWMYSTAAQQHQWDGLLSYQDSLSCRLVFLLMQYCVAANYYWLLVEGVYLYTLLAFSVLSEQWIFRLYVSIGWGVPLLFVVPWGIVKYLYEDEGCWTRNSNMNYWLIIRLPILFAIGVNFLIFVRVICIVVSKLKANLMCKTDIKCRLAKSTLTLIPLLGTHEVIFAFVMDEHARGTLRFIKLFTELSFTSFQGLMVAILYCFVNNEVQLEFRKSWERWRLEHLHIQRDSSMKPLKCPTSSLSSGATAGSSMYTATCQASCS

Molecule | Ki (human GHS-R1a [4]) [nM] | EC50 of IP-1 accumulation (IP-One HTRF kit) in HEK293T-GHS-R1a cells (human GHS-R1a [5]) [nM] | also measured
S39C-Ex4 (peptide) | – | – | EC50 of cAMP accumulation (LANCE TR-FRET, 30 min) in YFP-AD293-SNAP GLP-1R cells (SNAP_GLP-1R): 0.0988 nM
OCCS [BME, beta-mercaptoethanol] | – | – | necrosis (MIN6 cells [1]): did not display significant signs of necrosis; apoptosis (cleaved caspase 3) (MIN6 cells [2]): did not display significant signs of necrosis (Figure S4a) or apoptosis
CCCCCCCC(=O)OC[C@H](NC(=O)[C@H](CO)NC(=O)CN)C(=O)N[C@@H](Cc1ccccc1)C(=O)N[C@@H](CC(C)C)C(=O)N[C@@H](CO)C(=O)N1CCC[C@H]1C(=O)N[C@@H](CCC(=O)O)C(=O)N[C@@H](Cc1c[nH]cn1)C(=O)N[C@@H](CCC(N)=O)C(=O)N[C@@H](CCCNC(=N)N)C(=O)N[C@H](C(=O)N[C@@H](CCC(N)=O)C(=O)N[C@@H](CCC(N)=O)C(=O)N[C@@H](CCCNC(=N)N)C(=O)N[C@@H](CCCCN)C(=O)N[C@@H](CCC(=O)O)C(=O)N[C@@H](CO)C(=O)N[C@@H](CCCCN)C(=O)N[C@@H](CCCCN)C(=O)N1CCC[C@H]1C(=O)N1CCC[C@H]1C(=O)N[C@@H](C)C(=O)N[C@@H](CCCCN)C(=O)N[C@@H](CC(C)C)C(=O)N[C@@H](CCC(N)=O)C(=O)N1CCC[C@H]1C(=O)N[C@@H](CCCNC(=N)N)C(=O)NCC(=O)NCC(=O)N[C@@H](CS)C(=O)NCC(=O)O)C(C)C [ghrelinGGCG] | – | – | EC50 (human GHS-R1a [3]): 11.1 ± 0.4 nM
GSS(Octanoyl)FLSPEHQRVQQRKESKKPPAKLQPRGGCG [ghrelinGGCG] | 19.6 | 11.2 | –
GSS(Octanoyl)FLSPEHQRVQQRKESKKPPAKLQPRGGC([PEG4 (disulfide)-benzylguanine])G [GhrelON] | 6.1 | 5.5 | –
